Assay results reported in patent US20130071835A1, “Qualitative and Quantitative Analytical Method for Analyzing the Activity Type of an Enzyme that is Activated by Proteolysis” (Nanoenteck, Inc., priority 2010, published 2013).

Target: T1, Lp-PLA2 (Homo sapiens, UniProt Q13093)
T1 construct: purchased diaDexus, USA
T1 sequence (Q13093 22-441): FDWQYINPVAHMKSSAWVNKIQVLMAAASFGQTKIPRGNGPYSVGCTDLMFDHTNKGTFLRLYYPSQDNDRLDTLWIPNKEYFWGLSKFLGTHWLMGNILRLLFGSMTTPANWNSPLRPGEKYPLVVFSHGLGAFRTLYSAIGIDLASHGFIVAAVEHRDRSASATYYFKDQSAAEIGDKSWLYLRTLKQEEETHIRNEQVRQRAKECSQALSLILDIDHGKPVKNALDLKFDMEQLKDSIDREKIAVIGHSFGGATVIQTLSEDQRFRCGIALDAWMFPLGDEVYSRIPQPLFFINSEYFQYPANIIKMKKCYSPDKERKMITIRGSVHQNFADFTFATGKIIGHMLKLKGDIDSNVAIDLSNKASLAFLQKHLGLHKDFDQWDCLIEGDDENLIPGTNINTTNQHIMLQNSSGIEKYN
Assay: Competition binding of Lp-PLA2 to Apo C-III-coated microplate (ELISA, absorbance)
Description: After Apo C-III was diluted with 100 mM carbonate buffer (pH 9.5) at a concentration of 2 μg/ml, the Apo C-III solution (100 μl) was added to each well in a microplate, which was coated at 37° C. incubator for 2 hrs. And then, the Apo C-III solution was removed from each well and 200 μl PBS supplemented with 1% BSA was added to each well. After incubation at 37° C. incubator, the solution was removed from each well that was then dried.
Tween-20 (0.05%)-containing PBS buffer (pH 7.4) was used for dilution, reaction and washing buffer in the experiment. Each 100 μl Lp-PLA2 (1 μg/ml) was added to Apo C-III-coated microplate well (FIG. 2a). Or, Lp-PLA2 and Apo C-III was diluted at a final concentration of 1 μg/ml and 0.5 μg/ml, respectively, and the solution (100 μl) was added to Apo C-III-coated microplate well (FIG. 2b). Each reaction preparation was incubated at 37° C. incubator for 50 min, and then removed from the well, followed by washing 2 times. Anti-Lp-PLA2 antibody solution (100 μl) diluted to 5 μg/ml was added to the washed well and incubated at 37° C. incubator for 50 min. The solution was removed and each well was washed 2 times. […] After 100 μl H2SO4 (2 N) was added to each washed well, the absorbance was measured. The measurement of absorbance utilized TECAN Infinit M200: wavelength measurement, 450 nm; and calibration wavelength, 620 nm. […]

Apolipoprotein C-III [Apo C-III]
Final signal intensity (absorbance: Ab 620 nm), mean (Lp-PLA2 1 μg/ml plus free Apo C-III 0.5 μg/ml added to Apo C-III-coated microplate well, Lp-PLA2 alone gave 0.208): 0.130 | reduction of signal compared with sample without free Apo C-III (Lp-PLA2 1 μg/ml plus free Apo C-III 0.5 μg/ml, Apo C-III-coated microplate): 37.6%
